The values below come from the nanobody polyreactivity screen of Harvey et al. (2022).

A short description of this data set: yeast display, Sf9 membrane polyspecificity reagent, FACS + sequencing; frameworks hold sequencing errors. Put shortly: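 In a synthetic yeast display library (Saccharomyces cerevisiae BJ5465), nanobody expression was induced with galactose for 36–48 hours. FACS gates were set low and high (top ~1%) using anti-HA fluorescence for expression and streptavidin fluorescence for binding of the Sf9 membrane reagent. Each polyreactivity label is drawn from the gate of origin.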
As for “QVQLVESGGGLVQAGGSLRLSCAASGSTFSDYVMGWYRQAPGKEREFVAAISWTGGITYYADSVKGRFTISRDNAKNTVYLQMNSLKPEDTAVYYCAAKRKYYGNGYWGQGTQVTVSS”, the “polyreactivity (PSR sort gate)” value is given as “high polyreactivity”.

“QVQLVESGGGLVQAGGSLRLSCAASGSTLATYTMGWYRQAPGKERELVAAISFGGSTYYADSVKGRFTISRDNAKNTVYLQMNRLKPEDTAVYYCAVYGDSYWGAYYYSDGYWGQGTQVTVSS”: the “polyreactivity (PSR sort gate)” value is “low polyreactivity”. Turning to “QVQRVESGGGLVQAGGSLRLSCPASGRIFRYYAMGWYRPAPGKEREMVARITRNGGTTYYADSVKGRFTISRDNAKNTVYLQMNSLKPEDTAVYYCAATYSVPYYGAWPEYDYWGQGTQVTVSS”, the “polyreactivity (PSR sort gate)” value was “high polyreactivity”. Regarding “QVQLVESGGGLVQAGGSLRLSCAASGSTFTIYAMGWYRQAPGKERELVAAISSGGGDTDYADSVKGRFTISRDNAKNTVYLQMNSLKPEDTAVYYCNAEGTSPRTGYDYWGQGTQVTVSS”, the “polyreactivity (PSR sort gate)” value was “low polyreactivity”. To “QVQLVESGGGLVQAGGSLRLSCDASGRIIQQYAMGWYRQAHGKERELVDAISRGGSTYYADSVKGRFTISRDNAKNTVYLQMNSLKPEDTAVYYCAVRSRRGLKYDYWGQGTQVTVSS” belongs “high polyreactivity”.

Consider “QVQLVESGGGLVQAGGSLRLSCAASVYIFWINAMGWYRQAPGKDRELVAAIRYSTGRTYYADSVKGRFTISRDNAKNTVYLQMNSLKPEDTAVYYCNARSWYIRGSQEYYYWGQGTQVTVSS”, for which the “polyreactivity (PSR sort gate)” value is “high polyreactivity”.

As to “QVQLVESGGGLVHAGGSLRLSCAASGFTFPNYAMGWYRQAPGKERSLVAAITSGGGRTNYADSVKGRFTISRDNAKNTVYLQMISLKPEDTAVYYCAKTRVRGSEFGYWGQGTQVTVSS”, the “polyreactivity (PSR sort gate)” value is listed as “low polyreactivity”.

Consider “QVQHVESGAGLVQAGGSLLLSCAASGRIFQKYPMGWYRQSPGKERELVAAISRGGSTYYADSVKGRFTISRDNAKNTVYLQMISLNPEDTAVYFCASTSYRRTGYNYWGQGTQVTVSS”, for which the “polyreactivity (PSR sort gate)” value was “high polyreactivity”. As to “QVQLVESGGGLDQAGGSLRLTCAASRFNFNGYAMGSYSQAPRKERELVAGITSGGRTNYADSVKGRFTISRDNAKNTVYLQMNSLKPEDTAVYYCNRYKVSGYDYWGQGTQVTVSS”, the “polyreactivity (PSR sort gate)” value is “high polyreactivity”.

Turning to “QVQLVESGGGLVQAGGSLRLSCAASGRTCYYTMGWYRPAPGKDRELVAAITWSVDSTYYADSVKGRFTISRDNAKNTVYLHMNSLKPEVTAVYYCAVQPPPLNGLYDYWGQGTQVTVSS”, the “polyreactivity (PSR sort gate)” value is “low polyreactivity”. Consider “QLQLVESGGGLVQARGSLRLSCASSGSPFEGYAMGRSRQAPGKERELVARITIGGSTNYADSVKGRFTISRDNAKNSVYLQMNSLKPDDTAVYYCAADYRWGYYFTFYYWGQGTQVTVSY”, for which the “polyreactivity (PSR sort gate)” value was “high polyreactivity”.

For “QVQLVESGGGLVQAGGSLRLSCAASGRTVPYNAMGWYRQAPGKESELVAAISGRGGSTYYADSVKGRFTISRDNAKKTVYLQMTSLKPEDTAVYYCAARLPWSYYRTQGYNYWGQGTQVTVSS”, the “polyreactivity (PSR sort gate)” value is given as “high polyreactivity”. As for “QVQLVESGGGLVQAGGSLRLSCAASGSIIKPYDMGWYIQAPGKERELVAAIRSSGGRTNYADSVKGRFTISRDNAKNTVYLQMNSLKPEDTAVYYCAAGYVSYWYYRYDYWGQGTQVTVSS”, the “polyreactivity (PSR sort gate)” value is given as “high polyreactivity”. Turning to “QDQLVESGGGLFQAGGSLRLSCAASGFTFTSYNMGWYRQAPGKEMELVAGISLSGGDTSYADSVKGRFTISRDNAKNTVYLQMNSMKPEDTAVYFCAKSYVNYAFDSWGHGTQVTVSS”, the “polyreactivity (PSR sort gate)” value is “high polyreactivity”. As to “QVQLVESGGGLVQAGGSLRLSCAASGRIFCVYAMGWYRQAPGKERELVAAIDTSDGSTNYADSVKGRFTISRDNAKYTVYLQMNSLKPEDTAVYYCNATDSYVPFDYWGQGTQVTVSS”, the “polyreactivity (PSR sort gate)” value is given as “low polyreactivity”. With “QYQLVESGGGLVQAGGSLRLSCAASGRTFYYNAMGWYRQAPGKETELVASITITDSTNYSDSVKGRFTISRDNANNTVYLQMNSLKPEDTAVYYCAKRGLGTSFYLSDYWGQGTQVTVSS” the entry was “low polyreactivity”; with “QVQLVESGGGLVQAGGSLRLSCAASGGTFYYNAMGWYRQAPGKERELVAAITDSGGRTYYADSVKGRFTISRDNAKNTVYLQMNSLKPEDTAVYYCAALARRQSRLYDYWGQGTQVTVSS”, “high polyreactivity”. “QVQLVESGGGLVQAGGSLRLSCAASGSTLYGYAMGWYRQAPGKERELVAAISVSGGRTYYADSVKGRFTISRDNAKNTVYLQMNSLKPEDTAVYYCAAYGTTRMDYWGQGTQVTVSS”: the “polyreactivity (PSR sort gate)” value is on record as “high polyreactivity”.

As for “QVQLVESGGGLVQAGGSLRLSCAASGSIFSSYAMGWYIQAPGKEMELVAGITWGGASTYYADSVKGRFTISRDNAKNTVYLQMNSLKPEDTAVYYCNRRAWVYYAPFTVIVLYGRDYWGQGTQVTVSS”, the “polyreactivity (PSR sort gate)” value is reported as “low polyreactivity”.

As to “QVQLVESGGGLVQAGGSLRLSCAASGTFYLYAIGWYRQAPGNERELVAALTRGGSTNYADSVKGRFTISRDNAKNTVDLQMNSLKPEDTAVYYCAAGSSRVFRKAGITRPSGLYYYWGQGTQVTVSS”, the “polyreactivity (PSR sort gate)” value is reported as “high polyreactivity”. In the case of “QVQLVESGGGLVQAGCSLRLSCAASGSIFTINAMGWYREAPGKERELVAAISFGGGSTYYADSVKGRFTISRDNAKITGYLQMNSLKREDTAVYYCAAEDWWGYDYWGQGNQVTVSS”, the “polyreactivity (PSR sort gate)” value is reported as “high polyreactivity”. “QDHLVESGGGLVPAGGSLRLSCAASGRIVYYVMGRYRQAPGKERELVAAISTRGGSTYYADSVKGRFTISRDNPKNTVYLQMNSLKAEDTAVYYCADSSLLTRYNSWGQGTQVTVSS”: the “polyreactivity (PSR sort gate)” value is “high polyreactivity”.

Regarding “QVQLVESGGGLVQSGGSLRLSCAASGSIFDGYAMGWYRQAPGKERELVAAISKGGTRTYYADSVKGRFTISRDNAKNTVYLQMNSLKPEDTAVYYGNAYFRREPDDGDYDYWGQGTQVTVSS”, the “polyreactivity (PSR sort gate)” value was “high polyreactivity”.

Consider “QVQLVESGGGLVQAGGSLRLSCAASGRIFSGYAMGWDRQAPGKERELVAAISSTGGTYYADSVKGRFTISRDNAKNTVYLQMNSLKPEDTAVYYCAADTYGYQGSAGGHWGQGTQVTVSS”, for which the “polyreactivity (PSR sort gate)” value is on record as “low polyreactivity”.

With “QVQLVESGGGLVQAGGSLRLSCAASGRTFYPNAMGWYRQAPGKEREFVARISDSGGYTYYADSVKGRFTISRDNAKNTVYLQMNSLKPEDTAVYYCAADYGDPRVNEYDYWGQGTQVTVSS”, the “polyreactivity (PSR sort gate)” value is “low polyreactivity”. Regarding “QVQLVESGGGLFQAGGSLRLSCAASGLIFRPYAMAWSRQAPGTERELVAAIRGSGGRTYYADSVKGRFTISRDNEKNTVYLQMNSLKPEDTAVYYCAVDVGRHTGYYYWGQGTQVTVSS”, the “polyreactivity (PSR sort gate)” value was “high polyreactivity”. As to “QVQLVESGGGLVHAGCSLRLSCAASGSTYVPYAMGWYRQAPGRERELVADISWSGGSTYYADSVKGRFTISRDNGKNTVFLQMNSLKPEDTAVYYCAATRTKGKFDYWGQGTQVTVSS”, the “polyreactivity (PSR sort gate)” value was “high polyreactivity”. With “QVHLVESGGGLVQAGGSLRLSCAASGSIFRGYAMGWSRQAPGKERELVAAITSGGSTNYADSVNGRFTISRDNANNTVYLQMNSLKPEDTAVYYCNTVRWGRRTTFYYWGQGTQVTVSS”, the “polyreactivity (PSR sort gate)” value was “low polyreactivity”. With “QVQLVESGGGLVQAGGSLRLSCAASGRTFAYYAMGWYRQAPGKERELVAAIDLSDGTTFYADSVKGRFTISRDNAKNTVYLQMNSLKPEDTSVYYCAAELFNVSYGSDFDYWGQGTQVTVSS” the entry was “low polyreactivity”. Consider “QVQLVESGGGLVQAGGSLLLSCAASGRTFGYYAMGWYRQAPGKETELVAAISSGGGTYYADSVKGRFTISRDNAKNTVYLQMNSLKPEDTAVYYCAATGWVYWGQFDYWGQGTQVTVSS”, for which the “polyreactivity (PSR sort gate)” value is recorded as “low polyreactivity”. In the case of “QVQLVESGGGLVQAGGSLRLSCAASGRTFTTYAMGWYRQAPGKARELVAAISDTGGITYYADSVKGRFTISRDNAKNTVYLQMISLKPEDTAVYYCNAESYGGDYDYWGQGTQVTVSS”, the “polyreactivity (PSR sort gate)” value is given as “low polyreactivity”.

For “QVQIVESGGGLVQAGCSLRLSCAASGFIFRRNAMGWYRQAPGKERELVATIRASGGRTYYADSEKGRFTISRDNAKNTVYLQMNSMKPEDTAVYYCAADTYRDVRDPYYYWGQGTQVTVSS”, the “polyreactivity (PSR sort gate)” value is given as “high polyreactivity”. “QVQLVESGGGLVQAGGSLRLSCAASGRIFGVNAMGWYRQAPGKERELVAAIFSGGSTYYADSVKGRFTISRDTAKNTVYLQMNSLKPEDTAVYYCAARFARYDWSMYYWGQGTQVTVSS”: the “polyreactivity (PSR sort gate)” value is “low polyreactivity”.

Consider “QVQLVESGGGLVQAGGSLRLSCAASGGIIGWNAMGWYRQAPGKERELVATISWSGGSTYYADSVKGRFTISRDNAKNTVYLQMNSLKPEDTAVYYCAVARSAYWYRPAYDYWGQGTQVTVSS”, for which the “polyreactivity (PSR sort gate)” value is reported as “high polyreactivity”. With “QVQLVESSGGLVQAGGSLRLTCAASGSTFTIYAIGWYRQAPRKERELVAVISSSGGSTYYADSVMGRFTISRDNAKNTVYLQMNSLKPEDTAVYYCAADTRYVGGYLTLYYWGQGTQVTVSS”, the “polyreactivity (PSR sort gate)” value is given as “low polyreactivity”. On to “QVQLVESGGGLVQAGGSLRLSCAASGSTFPVYAMGWYRQAPGKERELVAAISLIGGSTYYADSVKGRFTISRDNAKNTVYLQMNSLNPEDTAVYYCNNAVISSPPAIDVLEMDYWGQGTQVTVSS”, for which the “polyreactivity (PSR sort gate)” value is reported as “low polyreactivity”.

Regarding “QVQLVESGGGLVQAGGSLRLSCADSGRTFEPYTMGWYRQAPGKERELVAAISWRGGSTYADSVKGRFTISRDNAKNTVYLQMNSLKPEDTAVYYCAAEPYWHLDSQYFGREYDYWGQGTQVTVSS”, the “polyreactivity (PSR sort gate)” value is recorded as “low polyreactivity”. Turning to “QVQLVESAAGLVQAGASHRLSCAPSGRIFVNYAMGGYRQAPGKERELVAAITSDGSTSYADSVKGRFTISRDNAKNTVYLQMNSLKPEDSADYYCAKDFFEHSPVSLTYSSSKYDYWGQGTQVTVSS”, the “polyreactivity (PSR sort gate)” value is “low polyreactivity”. For “QVQLVESGGGLVQAGGSLRLSCAASGSIFYWYAMGWYRQAPGKERELVASITTAGSTYYADSVKGRFTISRDNAKNTVYLQMNSLKPEDTAVYYCNTVPYGYHGYLYLYTYGYWGQGTQVTVSS”, the “polyreactivity (PSR sort gate)” value is “high polyreactivity”.

As for “QVQLVESRGGLVQAGGSLRLSCAASGRTIGLNAMGWYRQAPRKERELVASAITGGGDSTYYADSVKGRFTMSRDNAKNPVYLQMNSVKPEDTAVYYCAKRYSRGSQYDYWGQGTQVTVSS”, the “polyreactivity (PSR sort gate)” value is listed as “high polyreactivity”. As for “QVQLEESGGGLVQAGGSLRLSCAATGSTFYDYAMGWYRQAPGKERELVASITFTGGSTYYADSVKGRFTISRDNAKNTVYLQMISLKPEDTAVYFCAAYGWRVHDRWFFERDYWGLGTQVTVSS”, the “polyreactivity (PSR sort gate)” value is recorded as “high polyreactivity”.
